B1: C596 (antibody, V domains shown)
VH: QVQLVESGGGVVQPGRSLRLSCAASGITFSHYGMHWVRQAPGKGLEWVALISSDGSKKYYADSVKGRFTISRDNSKSTLYLQMNSLRAEDTAIYYCAKDLGYYYGPPYGPDYWGQGTLVTVSS
VL: DIQMTQSPSSLSASVGDRVTITCQASQDVSNSLNWYQQKPGKAPKLLIYDASNLETGVPSRFSGSGSGTDFSFTISSLQPEDIATYYCLQYDNFSMYTFGQGTKLEIK
B2: C589 (antibody, V domains shown)
VH: QVQLQESGPGLVKPSQTLSLTCTVSGGSISSGDYYWSWIRQPPGKGLEWIGYIYYSGSTNYNPSLRSRVTISVDTSKNQFSLRLRSVTAADTAVYYCARDAIGSASYGVEYFQHWGQGTLVTVSS
VL: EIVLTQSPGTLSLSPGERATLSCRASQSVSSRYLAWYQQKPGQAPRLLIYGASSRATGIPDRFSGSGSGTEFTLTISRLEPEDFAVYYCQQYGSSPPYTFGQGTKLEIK
B3: C587 (antibody, V domains shown)
VH: QVQLVQSGAEVKKSGSSVKVSCKASGGSFSSYAISWVRQAPGQGLEWMGGIIPIFGTAKYAQKFQGRVTITADESTSTAYMELSSLRSEDTAVYYCASRWEQLNGGSWHYFDYWGQGTLVTVSS
VL: QSALTQPASVSGSPGQSITISCTGTRSDVGRNNLVSWYQHHPGKAPKVMIYEGSKRPSGVSTRFSGSKSGNTASLTISGLQAEDEADYYCCSYAGSSTFEGVFGGGTKLTVL
B4: C021 (antibody, V domains shown)
VH: QVQLQESGPGLVKPSQTLSLTCTVSGGSISSGGYYWSWIRQHPGKGLEWIGYIYYSGSTYYNPSLKSRVTISVDTSKNQFSLKLSSVTAADTAVYYCARVWQYYDSSGSFDYWGQGTLVTVSS
VL: not shown
B5: C595 (antibody, V domains shown)
VH: QVQLVESGGGVVQAGRSLRLSCAASGFTFSSFGLHWVRQAPGKGLEWVAVISDDGANKYYADSVKGRFTISRDNSKNTLYLQMNSLRADDTAKYYCAKSWWLSENWFDPWGQGTLVTVSS
VL: EIVMTQSPATLSVSPGERATLSCRASQSVRSNLAWYQQKPGQAPRLLIYGASTRATGIPARFSGSGSGTDFTLTISSLQSEDFAVYYCQQYNNWPLTFGGGTKVEIK
B6: C582 (antibody, V domains shown)
VH: QVQLVESGGGVVQPGRSLRLSCVASGFTFSYFDMHWVRQAPGKGLEWVALISHDGSTTFYGDSARGRFTISRDNSRNTLDLQMNSLRPEDTAVYFCAKPVDAAMFDFWGQGTLVTVS
VL: SYELTQPPSVSVAPGKTARITCGGNNIGSKSVHWYQQRPGQAPVLVIYYDSDRPSGIPERFSGSNSGNTATLTISRVEAGDEADFYCQVWDRSTNHLVVFGGGTQLTVL
B7: C584 (antibody, V domains shown)
VH: EVQLVESGGGLVQPGGSLRLSCAASGFTFSTYDMHWVRQATGKGLEWVSAIGTAGDKYYPGSVKGRFTISRENAKNSLYLQMNSLRAGDTAVYYCVRAGYSSGWPLYWYFDLWGRGTLVTVSS
VL: DIQMTQSPSSLSASVGDRVTITCRASQSISSYLNWYQQKPGKAPKFLIYAASSLQSGVPSRFSGSGSGTDFTLTISNLQPEDFATYYCQQSYRTPPEFTFGPGTKVDIK
B8: C586 (antibody, V domains shown)
VH: EVQLVESGGGLIQPGGSLRLSCTASGLIVSSNYMSWIRQAPGKGLEWVSLIYSGGSTFYADSVKGRFTISRDNSKNTLFLHMNSLRAEDTAVYYCARHPYGTDVWGQGTTVTVSS
VL: DIQMTQSPSSLSASVGDRVTITCQASQDIVKYLNWYQQKSGKAPKLLIHDASNLETGVTSRFSGSGSGTHFTFTISSLQPEDLATYYCQQYDNLPITFGQGTRLEIK
B9: C588 (antibody, V domains shown)
VH: EVQLVESGGGLVQPGGSLKLSCAASGFTFSGSAMHWVRQASGKGLEWVGRIRNKANSYATAYGASVRGRFTVSRDDSKNTAYLQMNSLKIEDTAVYYCTKDIAAGIPALNWFDSWGQGTLVTVSS
VL: EIVLTQSPATLSLSPGERATLSCRASQSVSSYLAWYQQKPGQAPRLLIYDASNRATGIPARFSGSGSGTDFTLTISSLEPEDFAVYYCQQHTNWPPRITFGGGTKVEIK
B10: C583 (antibody, V domains shown)
VH: EVQLVESGGGLIQPGGSLRLSCAASILTVSRNYMSWVRQAPGKGLEWVSSIYSGGTTYYADSVKGRFTISRDDSKNTLYLQMNSLRAEDTAVYYCARPVVGGRAGMDVWGQGTTVTVSS
VL: DIQMTQSPSSLSASVGDRVTITCQASQDINKYLNWYQQKPGKAPKLLIYDASNLETGVPSRFSGSGSGTDFTFTISSLQPEDIGTFYCLHNDNPPLTFGGGTKVEIK
B11: C585 (antibody, V domains shown)
VH: QVQLQESGPGLVKPSETLSLTCTVSGDSISSYFWSWIRQPPGRGLEWIGYIHDSVNTNYNPSLKSRVTISVDTSKSQFSLRLSSVTAADTAVYYCARCAWLRGSFDYWGQGTLVTVSS
VL: NFMLTQPHSVSESPGKTVTISCTGSSGSIASNYVQWYQQRPGSAPTTVIYEDNQRPSGVPDRFSGSIDSSSNSASLTISGLKTEDEADYYCQSYDFSSHYVFGTGTKVTVL
B12: C002 (antibody, V domains shown)
VH: EVQLVESGGGVVQPGRSLRLSCAASGFTFSIYGMHWVRQAPGKGLEWVAVISYDGSNKYYADSVKGRFTISRDNSKNTLYLQMNSLRAEDTAVYYCAKEGRPSDIVVVVAFDYWGQGTLVTVSS
VL: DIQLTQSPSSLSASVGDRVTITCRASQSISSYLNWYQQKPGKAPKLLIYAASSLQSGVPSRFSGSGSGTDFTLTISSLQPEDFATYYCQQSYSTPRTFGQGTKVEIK
B13: C590 (antibody, V domains shown)
VH: QVQLVQSGAEVKKPGASVKVSCKVSGYNLTELSMYWVRQAPGKGLEWMGGFDPEDGGPIHAQKFQGRVTMTEDPSTDTAYMELRSLRSEDTALYYCATGGLFMIRGLEIWGRGTLVTVSS
VL: EIVLTQSPGTLSLSPGERATLSCRASQSISYTSLAWYQQKPGQAPRLLIFGASRGATGTPDRFSGSWSGTDFTLTISRLEPEDFAVYYCQQYGNSPRLSFGGGTKVEIK

Legend:
[1] = biological target: SARS-CoV-2 receptor binding domain (RBD), wild type (SARS-CoV-2, UniProt P0DTC2 319-539); experiment: ELISA, RBD coated on the plate, antibody titrated
[2] = biological target: SARS-CoV-2 RBD (S protein residues 319-539), wild type (SARS-CoV-2, UniProt P0DTC2 319-539); experiment: ELISA, RBD coated on plate, mAb titrated
[3] = biological target: SARS-CoV-2 spike receptor binding domain (RBD), wild type (SARS-CoV-2, UniProt P0DTC2 319-539); experiment: ELISA on coated RBD protein

Binder	EC50 [2]	further results
B1		EC50 [1]: 21 ng/mL
B2	6.61 ng/mL	
B3	4.39 ng/mL	
B4		EC50 [3]: 4.19 ng/mL
B5		EC50 [1]: 2.04 ng/mL
B6	8.43 ng/mL	
B7	10.5 ng/mL	
B8	5.42 ng/mL	
B9	1.36 ng/mL	
B10	4.42 ng/mL	
B11	11 ng/mL	
B12		EC50 [3]: 1.98 ng/mL
B13	2.81 ng/mL	
